From IntAct's records for PubMed 9171338

B1: Clathrin heavy chain (Saccharomyces cerevisiae), P22137 (parent)
chain: MSDLPIEFTELVDLMSLGISPQFLDFRSTTFESDHFVTVRETKDGTNSVAIVDLAKGNEVTRKNMGGDSAIMHPSQMVISVRANGTIVQIFNLETKSKLKSFTLDEPVIFWRWLSETTLGFVTARSILTSNVFDGNVNAKPQLLTLRHANLNNTQIINFVANKNLDWFAVVGILQENGRIAGRIQLFSKQRNISQAIDGHVAIFTNILLEGNGSTPVQVFVTGNRNATTGAGELRIIEIDHDASLPSQYQKETTDIFFPPDATNDFPIAVQVSEKYGIIYLLTKYGFIHLYELETGTNLFVNRITAESVFTAAPYNHENGIACINKKGQVLAVEISTSQIVPYILNKLSNVALALIVATRGGLPGADDLFQKQFESLLLQNDYQNAAKVAASSTSLRNQNTINRLKNIQAPPGAISPILLYFSTLLDKGKLNKEETIELARPVLQQDRKQLFEKWLKEDKLECSEELGDIVKPFDTTLALACYLRAGAHAKVISCLAELQQFEKIIPYCQKVGYQPNFLVLISSLIRSSPDRASEFAVSLLQNPETASQIDIEKIADLFFSQNHIQQGTSLLLDALKGDTPDQGHLQTRVLEVNLLHAPQVADAILGNNIFSHYDKPTIASLSEKAGLYQRALENYTDIKDIKRCVVHTNALPIDWLVGYFGKLNVEQSLACLKALMDNNIQANIQTVVQVATKFSDLIGPSTLIKLFEDYNATEGLYYYLASLVNLTEDKDVVYKYIEAAAKMKQYREIERIVKDNNVYDPERVKNFLKDANLEDQLPLVIVCDRFDFVHEMILYLYKSQNLKFIETYVQQVNPSKTAQVVGALLDMDCDEAFIQSLLQSVLGQVPINELTTEVEKRNRLKILLPFLEQSLSQGIQDQAVYNALAKIYIDSNNSPEKFLKENDQYDTLDVGHYCEKRDPYLAYIAYEKGQNDDDLIRITNENSMYKYQARYLLERSDLDLWNKVLNQENIHRRQLIDSVISVGIPELTDPEPVSLTVQAFMTNGLKLELIELLEKIILEPSPFNENVALQGLLLLSAIKYEPTKVSSYIEKLDNYDADEIAPLCIEHDLKEEAFEIYDKHEMYGKALKVLIEDIMSLDRAASYADKINTPELWSQIGTAQLDGLRIPDAIESYIKAEDPSNYENVIDIAEQAGKYEELIPFLLMARKTLKEPKIDGALILAYAELNKIHEIENLLAGSNVANLDHVGDKLFENKEYKAARLCYSAVSNYSKLASTLVYLGDYQAAVDTARKASNIKVWKLVNDACIEKKEFKLAQICGLNLIVHAEELDELVERYESNGYFEELISLFEAGLGLERAHMGMFTELAILYSKYEPDKTFEHLKLFWSRINIPKVIRAVEQAHLWSELVFLYAHYDEWDNAALTLIEKSTKDLDHAYFKEVVVKVSNLEIYYKAINFYVKFHPSLLVDLLTSLTPRLDIPRTVKIFSKSDNLPLIKPFLINVLPKNNSVVNQAYHDLMIEEEDYKALQDAVDSYDKFDQLGLASRLESHKLIFFKKIGALLYRRNKKWAKSLSILKEEKLWKDAIETAAISQDPKVVEALLTYFVETGNREGFVALLYAAYNLVRIEFVLEISWMNSLEDYIKPFEISIKKEQNDSIKKITEELAKKSGSNEEHKDGQPLMLMNSAMNVQPTGF
partner: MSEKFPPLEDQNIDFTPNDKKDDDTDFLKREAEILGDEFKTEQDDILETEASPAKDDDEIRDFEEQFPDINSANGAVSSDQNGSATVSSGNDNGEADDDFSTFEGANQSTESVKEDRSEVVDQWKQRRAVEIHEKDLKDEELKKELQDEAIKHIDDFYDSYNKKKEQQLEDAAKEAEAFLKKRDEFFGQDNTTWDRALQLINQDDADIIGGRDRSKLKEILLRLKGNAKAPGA

Variants of: B1
Settings: with clc1_yeast CLC1, P17891

effect of a mutation on the interaction	Variant
disrupting interaction strength	S1331F;S1347F;E1590A
disrupting interaction strength	S1331F;S1347F;E1590K
with no effect	S1331F;S1347F
with no effect	S1331F;S1347F;P1553L
disrupting interaction strength	S1331F;S1347F;P1553L;E1590K
disrupting interaction strength	E1590K
disrupting interaction strength	S1347F;P1553L;E1590K
disrupting interaction strength	P1553L;E1590K
with no effect	S1347F;P1553L

Variants of: B1
Settings: with clc1_yeast CLC1, P17891
Remark: another data set of the same source

effect of a mutation on the interaction	Variant
disrupting interaction strength	S1331F;S1347F;E1590A
disrupting interaction strength	E1590A
